The record followed here is patent US5670316.

The target of this data set is RecA (UniProt P0A7G6). The experiment in a line: pulldown.
Chain of RecA (P0A7G6 2-353): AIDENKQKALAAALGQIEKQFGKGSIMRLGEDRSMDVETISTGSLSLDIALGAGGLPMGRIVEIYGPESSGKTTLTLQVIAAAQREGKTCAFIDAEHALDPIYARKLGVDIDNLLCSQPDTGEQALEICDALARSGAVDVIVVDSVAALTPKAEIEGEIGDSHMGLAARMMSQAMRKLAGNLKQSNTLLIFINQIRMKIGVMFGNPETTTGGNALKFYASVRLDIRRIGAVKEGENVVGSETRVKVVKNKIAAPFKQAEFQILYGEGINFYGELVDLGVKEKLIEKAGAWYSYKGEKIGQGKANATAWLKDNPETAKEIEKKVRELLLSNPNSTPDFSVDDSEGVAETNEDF

The substance “lambda 1000-mer (6631-7630) nick-translated probe” yielded an activity (bio-14-dATP incorporated, capture of 32P lambda DNA target, 3.7% without RecA, ATPgammaS, Mg acetate) of 45.9%.
In the case of phiX174 RFI nick-translated probe, the activity (capture of 32P lambda target with heterologous non-biotinylated probe, 3.1% without RecA (background)) worked out at 3.6%.
